In the supplement of paper PMC12764529:
± gives the half width of the 95% confidence interval.

Columns and labels:
[1] = folding stability dG unfold (combined trypsin and chymotrypsin); higher = more stable
Summary of the method: (§1)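 Designed mini-proteins with no cysteine and under 80 residues were kept only if AlphaFold2 dimer inter-PAE was above 15. In a PA-tagged cDNA display construct, they were digested with trypsin and chymotrypsin and then sequenced. K50 was inferred by Bayesian fitting of counts, and unfolding free energy was derived per protease or combined against a sequence-predicted unfolded-state K50 and a shared folded-state K50.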

[2] = folding stability dG unfold from chymotrypsin proteolysis; higher = more stable
Summary of the method: as §1

[3] = folding stability dG unfold from trypsin proteolysis; higher = more stable
Method: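 Folding stability of de novo designed mini-proteins (<80 aa, no Cys; designed by TrROS, TrMRF, ProteinMPNN and the joint model) was measured by cDNA display proteolysis with trypsin and chymotrypsin. Each protease was used at 11 concentrations in a threefold dilution series plus a no-protease condition. K50 was inferred by Bayesian fitting of sequencing counts, and dG unfold was derived against a sequence-predicted unfolded-state K50 (Tsuboyama et al. method). Sequences shown include variable-length N-terminal GS-type padding (SAGGSAGG...) inside a display construct carrying a PA tag. Rows were kept only if the AF2 dimer inter-PAE was >15, to exclude likely homo-oligomers.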

Sequence | folding stability dG unfold [1] | folding stability dG unfold [2] | folding stability dG unfold [3]
SAGGSAEITEIEIEEEGGRLRVRATVTNENGETFEFEAEIELPPPPPPEEVTLERDPETDEWKEVTSAGGSA [r15_335_TrROS_Hall] | 2.22 ± 0.12 kcal/mol | 2.39 ± 0.087 kcal/mol | 2.17 ± 0.06 kcal/mol
SAGGSAGGSAVTIYIPWDEILEELGLPPEDVEYKPMKNGSYSFKYKNGKPVTIIMPPEDFKSAGGSAGGSAG [r3_477_TrROS] | 0.663 ± 0.19 kcal/mol | 1.07 ± 0.2 kcal/mol | -0.12 ± 0.29 kcal/mol
SAGKPLTPDEAKELAEELVDAFAEEFARRHGMPPDDMKVIEVEETPDGYIQVTFRMPNMPMKFEIPVKDSAG [r5_565_TrROS] | 0.366 ± 0.1 kcal/mol | 0.277 ± 0.11 kcal/mol | 0.435 ± 0.057 kcal/mol
SAGKIPPIKDIEPNPDNGMLMITIPFPDDGKLKVRIENKGQDQEYEFPPGMSFMIPPSNAPIKIEIEWDSAG [r14_96_TrROS] | 0.874 ± 0.098 kcal/mol | 0.82 ± 0.069 kcal/mol | 0.858 ± 0.019 kcal/mol
SAGKVKIVKIDKGKNKITIEFYDDGKKIATIPFPPNFPNTKVIAEVNEDGSIKVTFISGDKPIEITIDASAG [r5_533_TrMRF] | 2.59 ± 0.12 kcal/mol | 2.64 ± 0.1 kcal/mol | 2.57 ± 0.16 kcal/mol
SAGGSAGGSAGPLSTVTETTTTVPLPNGEVLTVTTYTYPDLGVTTVTTTYPDGTVTTTTIPVSAGGSAGGSA [r18_88_JUSTAS] | 2.47 ± 0.041 kcal/mol | 2.544 ± 0.011 kcal/mol | 2.3 ± 0.077 kcal/mol
SAGGMISKKLNPPSKEEAEKIAEEIKKKNPNYKVTMTYDPKTGTYTITITPLPKPPPDPKNFKEIIKSAGGS [r16_674_JUSTAS] | 1.48 ± 0.21 kcal/mol | 1.74 ± 0.15 kcal/mol | 1.23 ± 0.12 kcal/mol
SAGGSAGGSPLVKTTTSVDPVGPDRTLTTSTATLPSGGTTVTTTTFLTSPDGTVPVATTTTPSASAGGSAGG [r6_471_JUSTAS] | -0.11 ± 0.21 kcal/mol | 0.24 ± 0.14 kcal/mol | -0.461 ± 0.15 kcal/mol
SAGGMPVTVTIVVPPGTERELAEELAEKYAKEGADVEFEERPGGLVLTMTLPGGEVVTMEIRDPAQASAGGS [r16_406_JUSTAS] | 2.34 ± 0.057 kcal/mol | 2.382 ± 0.023 kcal/mol | 2.3 ± 0.056 kcal/mol
SAGGETKTLTIKFYDPKTGKLVAEVTITYTPEKVTVTIRFADGTTETVEMTAEELLAKLPPGAVIVPSAGGS [r16_543_TrROS_Hall] | 4.31 ± 0.16 kcal/mol | 4.46 ± 0.22 kcal/mol | 3.79 ± 0.11 kcal/mol
SAGGSALADRIAELARELGFEPVEIRYDPETGEVYALVRKPGGLLLRMRVEVDDDELHIEIEPLTDSAGGSA [r15_561_TrMRF] | 5.18 ± 0.095 kcal/mol | 5.27 ± 0.058 kcal/mol | 4.34 ± 0.1 kcal/mol
PNFKIDIEIIKAEEVPPRPTDDGKPQPVRRIHIRIEVKGPPDQPPELANNIVEEIMAELQELGLPVHIHVWS [r1_305_TrROS] | 1.83 ± 0.21 kcal/mol | 1.91 ± 0.075 kcal/mol | 1.62 ± 0.054 kcal/mol
SAGGEMVTIRVRAPDPEKLIEALREEFPEGLTIRPFPRPTPDGYEVLIVVPAERPEELLEAVERAIGSAGGS [r16_43_TrMRF] | 2.13 ± 0.068 kcal/mol | 2.17 ± 0.022 kcal/mol | 2.01 ± 0.075 kcal/mol
SAGGSAGGSAGGMTVERREVFPLGESLVITETREVLDPSSDVPVTVETRVEVLPPEVPPSAGGSAGGSAGGS [r10_599_JUSTAS] | 0.033 ± 0.18 kcal/mol | 0.25 ± 0.12 kcal/mol | -1.32 ± 0.74 kcal/mol
SAGGSADADDVTIVINMFRNPNNKGWFFRIEIQDPDKEREIFMPFDDIPKFQEAGLKIEITEWYPFSAGGSA [r15_783_TrROS] | 3.03 ± 0.086 kcal/mol | 3.29 ± 0.038 kcal/mol | 2.41 ± 0.068 kcal/mol
SAGGSAGGSAGKETITITLVVTDENGEKYLIRVEAKIDPKTNKITITKIEIIRLDDLKKLSAGGSAGGSAGG [r11_777_TrROS_Hall] | 1.75 ± 0.41 kcal/mol | 1.72 ± 0.058 kcal/mol | 1.12 ± 0.093 kcal/mol

Sequence | folding stability dG unfold [1] | folding stability dG unfold [2] | folding stability dG unfold [3]
SKKKKTIVIELTKDELKELLKKLKVEEGDEVEIFVRNKDGSIYKLTIKNGKITKIEPFKGVPNKVVIVIKSA [r9_849_TrROS_Hall] | 3.07 ± 0.3 kcal/mol | 3.49 ± 0.068 kcal/mol | 1.84 ± 0.067 kcal/mol
SAGGFEFEFTNPDGKKIKVEIERHPEEGYIMLKIQYGGKPVETFPPGDEFEIPPDGIDAVIMFRLPPESAGG [r13_958_TrROS] | 2.91 ± 0.22 kcal/mol | 3.22 ± 0.12 kcal/mol | 2.88 ± 0.15 kcal/mol
SAGGSMAKILEIIPEEKKIVVEFEGDPKTFPLDEIEEIRIEPEKGYLTIKVGDKVYTIPLDDPNDFSAGGSA [r2_48_TrMRF] | 1.81 ± 0.082 kcal/mol | 2.25 ± 0.044 kcal/mol | 0.579 ± 0.027 kcal/mol
SAGGRIRIEYDPENGTITIYVPTPDGEITPDQVEEIAKLLMELWPNIEVEIEPHPNGMVRITIKIPPKSAGG [r13_291_TrROS] | 3.54 ± 0.19 kcal/mol | 3.81 ± 0.23 kcal/mol | 3 ± 0.19 kcal/mol
SAGGSAGGSASWITITGLLPGGRLVTTRYDPSTGSVSTETTPIPPVPAFPLGPENLALNFLLSAGGSAGGSA [r18_236_JUSTAS] | 0.746 ± 0.13 kcal/mol | 0.528 ± 0.19 kcal/mol | 0.706 ± 0.044 kcal/mol
SAGGSAGGMVLRITLPNGEVIEIPLEELGLSEEERKRRLAELLAEELRKLFPGKEIKVEVVELPSAGGSAGG [r6_164_TrROS_Hall] | 3.83 ± 0.14 kcal/mol | 4 ± 0.057 kcal/mol | 3.54 ± 0.08 kcal/mol
SAGMEELAEELAKELEGEGLKVEVEVDPETGVVTVTAYSPESVTVVTITQDPNNDAFTVNTTTYPPLLSAGG [r19_2_JUSTAS] | 3.02 ± 0.059 kcal/mol | 2.95 ± 0.061 kcal/mol | 3.07 ± 0.083 kcal/mol
SAGDPEVVAEAEFPFTFPLAKIEVRISVYPDGTARIEVTITFPAPGKGNPKKPIKLRFRFEIKLAPDALSAG [r5_224_TrMRF] | 5.12 ± 0.36 kcal/mol | 5.3 ± 0.15 kcal/mol | 3.8 ± 0.3 kcal/mol
SAGGMVVVKIRIEREVDGKVEEVELVLEVELDEDGKVSAEELKALLKELLPENVKITEIEVVEPGEEPSAGG [r13_504_TrROS_Hall] |  | 3.39 ± 0.2 kcal/mol | 4.76 ± 0.69 kcal/mol
SLEEFLASEEAKKRLEALKPPPPVETIRIKVKAKSVEEALKAIRELFPGVEVVKIKEVRPDGYLEVEVRRSA [r9_723_TrROS_Hall] |  | 2.37 ± 0.36 kcal/mol | 3.89 ± 0.41 kcal/mol
SAGGSAGGSAGMTITVPITDLEKLKTMPELPVEVIEEGEGPPTATLDASNPELAKQAYSSSAGGSAGGSAGG [r11_65_JUSTAS] |  | 0.117 ± 0.49 kcal/mol | -0.0977 ± 0.18 kcal/mol
SAGGSAGGSAGGSKKVIEVPAKDLTPEQLKKLAKEGETIEITFPNGEKKEIPAEKLKPKSAGGSAGGSAGGS [r4_382_TrROS_Hall] |  | -0.998 ± 0.9 kcal/mol | 0.115 ± 0.15 kcal/mol
SAGGSAGGSEEVEIRIVLPDMSEEELKAALEALLSEPGAEIEIVRVERREDGSLVVTVKVRVPSAGGSAGGS [r12_348_TrROS_Hall] |  | 2.9 ± 0.12 kcal/mol | 4.83 ± 0.43 kcal/mol
SAGEIAEALGFEVVDVSIEEVDGKLRITVVVRFKDNDLVITAEAEVTEVDGELKIEIKITIEPLPPEDLSAG [r5_516_TrROS_Hall] |  | 3.66 ± 0.37 kcal/mol | 2.85 ± 0.26 kcal/mol
SAGGSAGGSAGGGMGSSVTITTEEDPTDETETTKKTKVTLNLPNPEEAEALKKKIEEKESAGGSAGGSAGGS [r10_1180_JUSTAS] |  | -0.807 ± 0.68 kcal/mol | -0.47 ± 0.18 kcal/mol
SAMTIEITVPPGMSVEELAKLLKELFPEVEEIKIEVEYDEETKELKVRIEIRPKPELSEEEKEALEKLKSAG [r14_645_TrROS_Hall] |  | 3.99 ± 0.47 kcal/mol | 2.9 ± 0.28 kcal/mol
